The target of assay [1] is microtubule network of cultured human cells (hTERT-RPE1, 293T) (human, UniProt P68363 1-451; P07437 1-444). Nature of the assay: cell-based or functional assay.
Assay [2] concerns the target T1, pure, pre-polymerized, taxol-stabilized microtubules of bovine tubulin (Cytoskeleton) (bovine, UniProt P81947 1-451; Q6B856 1-445, limits assumed).
T1 construct: Polymer of alpha/beta tubulin dimers, polymerized with GTP and stabilized with 10 µM taxol; also called MT; MTs
Nature of the assay: in vitro microtubule co-sedimentation, percent of construct in the microtubule pellet (FIG. 4D). On the procedure:
Crude TNT T7 reaction products were diluted 1:1 in BRB80 supplemented with 1 mM GTP and 10 μM taxol. The diluted products were then incubated at 30° C. for 30 minutes in either the presence or absence of pure, pre-polymerized microtubules. Reactions were then centrifuged through a 40% sucrose cushion at 48,000×g for 30 minutes, the supernatant was collected, and the pellet washed once with warm BRB80 and resuspended in 1×SDS PAGE sample buffer. Both fractions were subjected to SDS-PAGE and transferred to nitrocellulose. The presence of tubulin in the pellets was confirmed by Ponceau staining, and GFP-tagged CEP290 constructs were detected by immunoblotting.

Bounds are passed on as bounds.

Chain of microtubule network of cultured human cells (hTERT-RPE1, 293T) (P68363 whole entry, chain 1 of 2): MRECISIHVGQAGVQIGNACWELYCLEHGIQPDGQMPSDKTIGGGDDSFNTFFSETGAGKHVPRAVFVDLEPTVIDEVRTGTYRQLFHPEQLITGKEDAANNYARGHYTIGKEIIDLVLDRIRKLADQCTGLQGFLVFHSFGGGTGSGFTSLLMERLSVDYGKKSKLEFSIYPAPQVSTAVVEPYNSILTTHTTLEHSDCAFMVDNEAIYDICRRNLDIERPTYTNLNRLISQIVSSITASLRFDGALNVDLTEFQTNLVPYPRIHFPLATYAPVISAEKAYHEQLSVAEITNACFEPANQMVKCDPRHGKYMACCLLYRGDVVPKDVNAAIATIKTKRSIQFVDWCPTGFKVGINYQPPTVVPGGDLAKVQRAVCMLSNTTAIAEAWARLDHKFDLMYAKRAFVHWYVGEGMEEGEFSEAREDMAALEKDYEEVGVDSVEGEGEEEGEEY
Chain of microtubule network of cultured human cells (hTERT-RPE1, 293T) (P07437 whole entry, chain 2 of 2): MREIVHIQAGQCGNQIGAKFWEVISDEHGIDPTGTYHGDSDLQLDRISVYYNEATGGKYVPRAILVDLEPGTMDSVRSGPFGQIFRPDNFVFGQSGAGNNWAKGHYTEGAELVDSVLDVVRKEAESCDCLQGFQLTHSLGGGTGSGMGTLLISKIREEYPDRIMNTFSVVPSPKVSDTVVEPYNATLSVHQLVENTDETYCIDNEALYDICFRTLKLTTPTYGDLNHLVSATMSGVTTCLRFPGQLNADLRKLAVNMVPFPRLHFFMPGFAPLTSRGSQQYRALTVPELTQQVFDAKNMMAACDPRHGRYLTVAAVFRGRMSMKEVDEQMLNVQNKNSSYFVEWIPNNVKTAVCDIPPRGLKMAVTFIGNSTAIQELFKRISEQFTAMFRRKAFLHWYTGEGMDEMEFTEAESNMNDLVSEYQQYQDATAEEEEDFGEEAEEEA
T1 sequence (P81947 whole entry, chain 1 of 2): as the sequence (P68363 whole entry, chain 1 of 2) above
T1 sequence (Q6B856 whole entry, chain 2 of 2): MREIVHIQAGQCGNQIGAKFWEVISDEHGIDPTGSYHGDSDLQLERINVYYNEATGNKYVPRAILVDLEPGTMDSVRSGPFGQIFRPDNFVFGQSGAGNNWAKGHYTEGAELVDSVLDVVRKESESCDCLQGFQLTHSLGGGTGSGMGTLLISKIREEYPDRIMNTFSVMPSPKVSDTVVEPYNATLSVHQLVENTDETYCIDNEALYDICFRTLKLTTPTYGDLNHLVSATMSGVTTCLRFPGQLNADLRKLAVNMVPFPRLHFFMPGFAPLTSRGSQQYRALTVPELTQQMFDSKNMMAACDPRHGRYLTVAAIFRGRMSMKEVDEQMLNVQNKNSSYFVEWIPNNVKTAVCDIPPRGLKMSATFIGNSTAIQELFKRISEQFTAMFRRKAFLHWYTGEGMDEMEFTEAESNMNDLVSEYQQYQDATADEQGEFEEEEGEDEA

B1: GFP fusion of CEP290 aa 580-2479 (other)
chain: TENISQGDRISERKLDLLSLKNMSEAQSKNEFLSRELIEKERDLERSRTVIAKFQNKLKELVEENKQLEEGMKEILQAIKEMQKDPDVKGGETSLIIPSLERLVNAIESKNAEGIFDASLHLKAQVDQLTGRNEELRQELRESRKEAINYSQQLAKANLKIDHLEKETSLLRQSEGSNVVFKGIDLPDGIAPSSASIINSQNEYLIHLLQELENKEKKLKNLEDSLEDYNRKFAVIRHQQSLLYKEYLSEKETWKTESKTIKEEKRKLEDQVQQDAIKVKEYNNLLNALQMDSDEMKKILAENSRKITVLQVNEKSLIRQYTTLVELERQLRKENEKQKNELLSMEAEVCEKIGCLQRFKEMAIFKIAALQKVVDNSVSLSELELANKQYNELTAKYRDILQKDNMLVQRTSNLEHLECENISLKEQVESINKELEITKEKLHTIEQAWEQETKLGNESSMDKAKKSITNSDIVSISKKITMLEMKELNERQRAEHCQKMYEHLRTSLKQMEERNFELETKFAELTKINLDAQKVEQMLRDELADSVSKAVSDADRQRILELEKNEMELKVEVSKLREISDIARRQVEILNAQQQSRDKEVESLRMQLLDYQAQSDEKSLIAKLHQHNVSLQLSEATALGKLESITSKLQKMEAYNLRLEQKLDEKEQALYYARLEGRNRAKHLRQTIQSLRRQFSGALPLAQQEKFSKTMIQLQNDKLKIMQEMKNSQQEHRNMENKTLEMELKLKGLEELISTLKDTKGAQKVINWHMKIEELRLQELKLNRELVKDKEEIKYLNNIISEYERTISSLEEEIVQQNKFHEERQMAWDQREVDLERQLDIFDRQQNEILNAAQKFEEATGSIPDPSLPLPNQLEIALRKIKENIRIILETRATCKSLEEKLKEKESALRLAEQNILSRDKVINELRLRLPATAEREKLIAELGRKEMEPKSHHTLKIAHQTIANMQARLNQKEEVLKKYQRLLEKAREEQREIVKKHEEDLHILHHRLELQADSSLNKFKQTAWDLMKQSPTPVPTNKHFIRLAEMEQTVAEQDDSLSSLLVKLKKVSQDLERQREITELKVKEFENIKLQLQENHEDEVKKVKAEVEDLKYLLDQSQKESQCLKSELQAQKEANSRAPTTTMRNLVERLKSQLALKEKQQKALSRALLELRAEMTAAAEERIISATSQKEAHLNVQQIVDRHTRELKTQVEDLNENLLKLKEALKTSKNRENSLTDNLNDLNNELQKKQKAYNKILREKEEIDQENDELKRQIKRLTSGLQGKPLTDNKQSLIEELQRKVKKLENQLEGKVEEVDLKPMKEKNAKEELIRWEEGKKWQAKIEGIRNKLKEKEGEVFTLTKQLNTLKDLFAKADKEKLTLQRKLKTTGMTVDQVLGIRALESEKELEELKKRNLDLENDILYMRAHQALPRDSVVEDLHLQNRYLQEKLHALEKQFSKDTYSKPSISGIESDDHCQREQELQKENLKLSSENIELKFQLEQANKDLPRLKNQVRDLKEMCEFLKKEKAEVQRKLGHVRGSGRSGKTIPELEKTIGLMKKVVEKVQRENEQLKKASGILTSEKMANIEQENEKLKAELEKLKAHLGHQLSMHYESKTKGTEKIIAENERLRKELKKETDAAEKLRIAKNNLEILNEKMTVQLEETGKRLQFAESRGPQLEGADSKSWKSIVVTRMYETKLKELETDIAKKNQSITDLKQLVKEATEREQKVNKYNEDLEQQIKILKHVPEGAETEQGLKRELQVLRLANHQLDKEKAELIHQIEANKDQSGAESTIPDADQLKEKIKDLETQLKMSDLEKQHLKEEIKKLKKELENFDPSFFEEIEDLKYNYKEEVKKNILLEEKVKKLSEQLGVELTSPVAASEEFEDEEESPVNFPIY
notes: The text says only 'lacking the N-terminus'; also called truncation lacking the N-terminus; C-terminal fragment of CEP290 (aa 580 to 2479); not shown: N-terminal GFP tag from pcDNA-DEST53 (Gateway)
Consider B1, for which, in assay [1], the “percent of transfected cells with increased microtubule acetylation and bundling” value was around 40%; the “percent of transfected hTERT-RPE1 cells with a fibrillar localization pattern” value was around 20%. For the same molecule, the “percent associated with microtubules” value in assay [2] is below 50%.

B2: GFP fusion of CEP290 aa 580-1966 (other)
chain: TENISQGDRISERKLDLLSLKNMSEAQSKNEFLSRELIEKERDLERSRTVIAKFQNKLKELVEENKQLEEGMKEILQAIKEMQKDPDVKGGETSLIIPSLERLVNAIESKNAEGIFDASLHLKAQVDQLTGRNEELRQELRESRKEAINYSQQLAKANLKIDHLEKETSLLRQSEGSNVVFKGIDLPDGIAPSSASIINSQNEYLIHLLQELENKEKKLKNLEDSLEDYNRKFAVIRHQQSLLYKEYLSEKETWKTESKTIKEEKRKLEDQVQQDAIKVKEYNNLLNALQMDSDEMKKILAENSRKITVLQVNEKSLIRQYTTLVELERQLRKENEKQKNELLSMEAEVCEKIGCLQRFKEMAIFKIAALQKVVDNSVSLSELELANKQYNELTAKYRDILQKDNMLVQRTSNLEHLECENISLKEQVESINKELEITKEKLHTIEQAWEQETKLGNESSMDKAKKSITNSDIVSISKKITMLEMKELNERQRAEHCQKMYEHLRTSLKQMEERNFELETKFAELTKINLDAQKVEQMLRDELADSVSKAVSDADRQRILELEKNEMELKVEVSKLREISDIARRQVEILNAQQQSRDKEVESLRMQLLDYQAQSDEKSLIAKLHQHNVSLQLSEATALGKLESITSKLQKMEAYNLRLEQKLDEKEQALYYARLEGRNRAKHLRQTIQSLRRQFSGALPLAQQEKFSKTMIQLQNDKLKIMQEMKNSQQEHRNMENKTLEMELKLKGLEELISTLKDTKGAQKVINWHMKIEELRLQELKLNRELVKDKEEIKYLNNIISEYERTISSLEEEIVQQNKFHEERQMAWDQREVDLERQLDIFDRQQNEILNAAQKFEEATGSIPDPSLPLPNQLEIALRKIKENIRIILETRATCKSLEEKLKEKESALRLAEQNILSRDKVINELRLRLPATAEREKLIAELGRKEMEPKSHHTLKIAHQTIANMQARLNQKEEVLKKYQRLLEKAREEQREIVKKHEEDLHILHHRLELQADSSLNKFKQTAWDLMKQSPTPVPTNKHFIRLAEMEQTVAEQDDSLSSLLVKLKKVSQDLERQREITELKVKEFENIKLQLQENHEDEVKKVKAEVEDLKYLLDQSQKESQCLKSELQAQKEANSRAPTTTMRNLVERLKSQLALKEKQQKALSRALLELRAEMTAAAEERIISATSQKEAHLNVQQIVDRHTRELKTQVEDLNENLLKLKEALKTSKNRENSLTDNLNDLNNELQKKQKAYNKILREKEEIDQENDELKRQIKRLTSGLQGKPLTDNKQSLIEELQRKVKKLENQLEGKVEEVDLKPMKEKNAKEELIRWEEGKKWQAKIEGIRNKLKEKEGEVFTLTKQLNTLKDLFAKADKEKLTLQRKLKT
notes: The text says only 'lacking both termini'; also called truncation lacking both termini; construct lacking both the N- and C-termini; not shown: N-terminal GFP tag from pcDNA-DEST53 (Gateway)
Turning to B2, in assay [1], the “percent of transfected cells with increased microtubule acetylation and bundling” value is around 75%; the “percent of transfected hTERT-RPE1 cells with a fibrillar localization pattern” value was around 80%. For the same molecule, the “percent associated with microtubules” value in assay [2] was around 100%.

B3: GFP fusion of CEP290 aa 1695-1966 (region M) (other)
chain: DQSQKESQCLKSELQAQKEANSRAPTTTMRNLVERLKSQLALKEKQQKALSRALLELRAEMTAAAEERIISATSQKEAHLNVQQIVDRHTRELKTQVEDLNENLLKLKEALKTSKNRENSLTDNLNDLNNELQKKQKAYNKILREKEEIDQENDELKRQIKRLTSGLQGKPLTDNKQSLIEELQRKVKKLENQLEGKVEEVDLKPMKEKNAKEELIRWEEGKKWQAKIEGIRNKLKEKEGEVFTLTKQLNTLKDLFAKADKEKLTLQRKLKT
notes: Also a construct without both termini; also called CEP290 region M alone; truncation M (GFP fusion); not shown: N-terminal GFP tag from pcDNA-DEST53 (Gateway)
Take B3: the “percent of transfected cells with increased microtubule acetylation and bundling” value in assay [1] is around 75%. Also, the “percent associated with microtubules” value in assay [2] is around 100%.
